Results on 30 compounds are retold here after US9995740B2, “Method of determining temperature and method of detecting a target peptide” (SYSMEX CORPORATION, priority 2015, dated 2018).

Residues, ends and D or L forms follow the SMILES beside them. No end group written: not given here.

The nature of data set [1]: Isoelectric point (pI) of the peptides of Table 3. The data set is classed as physicochemical.
For data set [2], the target named is T1, HSA (Homo sapiens, UniProt P02768).
T1 construct: purchased Sigma-Aldrich Co. LLC
Kind of data set: Hydrothermal treatment in the presence of HSA or serum, partition of peptide between supernatant and insoluble fraction (SDS-PAGE, fluorescence image). To be noted: for band derived from the peptide in supernatant of hydrothermally-treated sample: SDS-PAGE fluorescence image.

The target of data set [3] is T1, HSA. Kind of data set: Kd of TMR-labeled peptide for HSA by fluorescence intensity difference and Hill's equation. It is filed as binding. The conditions noted are these: for suitability as linker peptide of the peptide for temperature determination (FIG. 8): classified by Kd for HSA, 500 μM or more = suitable. On the procedure: Each of the resulting mixtures was subjected to measurement with a spectrophotofluorometer [product name: F-7000, manufactured by Hitachi High-Technologies Corporation] and the fluorescence intensity with an excitation wavelength of 540 nm and a fluorescence wavelength of 580 nm (hereinafter, referred to as “fluorescence intensity A”) was measured.
Each of the resulting mixtures was subjected to measurement with a spectrophotofluorometer [product name: F-7000, manufactured by Hitachi High-Technologies Corporation] and the fluorescence intensity with an excitation wavelength of 540 nm and a fluorescence wavelength of 580 nm (hereinafter, referred to as “fluorescence intensity B”) was measured.
Equation (I): Difference between fluorescence intensities=fluorescence intensity A−fluorescence intensity B (I)
A difference between the fluorescence intensities was determined in accordance with the above equation.

The mark [4] stands for this setting: microwave hydrothermal treatment 160° C., in the presence of HSA.
[5] abbreviates: heat transfer 200° C. for 40 minutes, in the presence of HSA (300 or 600 μM), phosphate buffered saline.

In data set [1], “ACTH (7-11): SEQ ID NO: 5, 5 amino acid residues (FRWGK; Synthetic sequence of ACTH (7-11))” showed a pI of 11.
Consider “TMR-labeled ACTH (1-39): ACTH (1-39) labeled with tetramethyl rhodamine (TMR) (SYSMEHFRWGKPVGKKRRPVKVYPNAGENESAEAFPLEF; also: tetramethyl rhodamine (TMR) label, position not given here)”, for which the “band derived from the peptide in supernatant of hydrothermally-treated sample” value (from here on “band derived from the peptide”) with HSA [2] (setting [4]) is reported as “observed”.
In data set [1], “Dynorphin A (YGGFLRRIRPKLK; Synthetic sequence of Dynorphin A)” came in with a pI of 11.7. The “suitability as linker peptide of the peptide for temperature determination (FIG. 8)” value (“suitability as linker peptide” for short) with HSA [3] is on record as “suitable”.
In the same order, the values of “HSA 237-249 fragment: SEQ ID NO: 26, 13 amino acid residues (AWAVARLSQRFPK; Synthetic sequence of HSA237-249)” are 12 and “suitable”.
Regarding “lqp: SEQ ID NO: 13, 12 amino acid residues (GKYFNAAEYHAQ; Synthetic sequence of lqp)”, the pI in data set [1] was 6.8.
The compound “(Lys)10: SEQ ID NO: 6, 10 amino acid residues (KKKKKKKKKK; Synthetic sequence of (Lys)10)” yielded a pI in data set [1] of 11.
With “TMR-labeled SA21: SA21 labeled with tetramethyl rhodamine; used as peptide for phase partition determination (DDEWLCGWRPLCIDEILR; cysteine pairing not given here; also: tetramethyl rhodamine (TMR) label, position not given here)”, the “partition of peptide after hydrothermal treatment” value with HSA [2] (160° C., serum-containing sample M, observed under visible light) is on record as “transferred to the insoluble fraction”. For the same compound, the “band derived from the peptide” value with HSA [2] (setting [5]) was “light band”.
One may read the Kd as the equilibrium constant for the complex coming apart. Compound `CC[C@H](C)[C@H](NC(=O)[C@H](CCC(=O)O)NC(=O)[C@H](CC(=O)O)NC(=O)[C@@H](NC(=O)[C@H](CS)NC(=O)[C@H](CC(C)C)NC(=O)[C@@H]1CCCN1C(=O)[C@H](CCCNC(=N)N)NC(=O)[C@H](Cc1c[nH]c2ccccc12)NC(=O)CNC(=O)[C@H](CS)NC(=O)[C@H](CC(C)C)NC(=O)[C@H](Cc1c[nH]c2ccccc12)NC(=O)[C@H](CCC(=O)O)NC(=O)[C@H](CC(=O)O)NC(=O)[C@@H](N)CC(=O)O)[C@@H](C)CC)C(=O)N[C@@H](CC(C)C)C(=O)N[C@@H](CCCNC(=N)N)C(=O)O` [SA21] (H-DDEWLCGWRPLCIDEILR-OH; N-terminus and C-terminus assumed) gave a Kd at HSA [3] (TMR-labeled peptide, phosphate buffered saline, excitation 540 nm / fluorescence 580 nm) of less than 500 µM.
“Fibrinogen α: SEQ ID NO: 12, 25 amino acid residues (DEAGSEADHEGTHSTKRGHAKSRPV; Synthetic sequence of Fibrinogen alpha)”: the pI in data set [1] is on record as 6.3.
On the same count and under the same terms, the figure for “Kininogen: SEQ ID NO: 7, 19 amino acid residues (HNLGHGHKHERDQGHGHQR; Synthetic sequence of Kininorgen)” is 8.8.
With “ITIH4: SEQ ID NO: 28, 21 amino acid residues (NVHSAGAAGSRMNFRPGVLSS; Synthetic sequence of ITIH4)”, the pI in data set [1] was determined as 12. Further, the “suitability as linker peptide” value in the data set with HSA [3] is reported as “suitable”.
The matching figures for “C4a: SEQ ID NO: 23, 15 amino acid residues (NGFKSHALQLNNRQI; Synthetic sequence of C4a) [Peptide C4a]”: 11 and “suitable”.
Compound “Glucagon (1-29): SEQ ID NO: 4, 29 amino acid residues” yielded a pI in data set [1] of 6.8.
“(Gly) 10: SEQ ID NO: 20, 10 amino acid residues” yielded a pI in data set [1] of 5.5. Further, the “suitability as linker peptide” value in the data set with HSA [3] is given as “suitable”.
In turn, `CSCC[C@H](NC(=O)[C@H](CO)NC(=O)[C@H](Cc1ccc(O)cc1)NC(=O)[C@@H](N)CO)C(=O)N[C@@H](CCC(=O)O)C(=O)N[C@@H](Cc1c[nH]cn1)C(=O)N[C@@H](Cc1ccccc1)C(=O)N[C@@H](CCCNC(=N)N)C(=O)N[C@@H](Cc1c[nH]c2ccccc12)C(=O)NCC(=O)N[C@@H](CCCCN)C(=O)N1CCC[C@H]1C(=O)N[C@H](C(=O)NCC(=O)N[C@@H](CCCCN)C(=O)N[C@@H](CCCCN)C(=O)N[C@@H](CCCNC(=N)N)C(=O)N[C@@H](CCCNC(=N)N)C(=O)N1CCC[C@H]1C(=O)N[C@H](C(=O)N[C@@H](CCCCN)C(=O)N[C@H](C(=O)N[C@@H](Cc1ccc(O)cc1)C(=O)N1CCC[C@H]1C(=O)N[C@@H](CC(N)=O)C(=O)N[C@@H](C)C(=O)NCC(=O)N[C@@H](CCC(=O)O)C(=O)N[C@@H](CC(N)=O)C(=O)N[C@@H](CCC(=O)O)C(=O)N[C@@H](CO)C(=O)N[C@@H](C)C(=O)N[C@@H](CCC(=O)O)C(=O)N[C@@H](C)C(=O)N[C@@H](Cc1ccccc1)C(=O)N1CCC[C@H]1C(=O)N[C@@H](CC(C)C)C(=O)N[C@@H](CCC(=O)O)C(=O)N[C@@H](Cc1ccccc1)C(=O)O)C(C)C)C(C)C)C(C)C` [ACTH (1-39), Adrenocorticotropic hormone (ACTH) (1-39)] (H-SYSMEHFRWGKPVGKKRRPVKVYPNAGENESAEAFPLEF-OH; N-terminus and C-terminus assumed) registered a pI in data set [1] of 9.3. Besides, on HSA [3], the “suitability as linker peptide” value is “suitable”.
“β-amyloid (1-42): SEQ ID NO: 2, 42 amino acid residues” showed a pI in data set [1] of 5.3.
With “Cp6: SEQ ID NO: 22, 8 amino acid residues (DIGEEFNQ; Synthetic sequence of Cp6)”, the pI in data set [1] came out at 3.6. Moreover, the “suitability as linker peptide” value with HSA [3] is listed as “suitable”.
Compound “ACTH (2-16): SEQ ID NO: 10, 15 amino acid residues (YSMEHFRWGKPVGKK; Synthetic sequence of ACTH (2-16))” registered a pI in data set [1] of 10.
For “TMR-labeled HSA 599-609 fragment: HSA 599-609 fragment labeled with tetramethyl rhodamine (TMR) (LVAASQAALGL; also: tetramethyl rhodamine (TMR) label, position not given here)”, the “band derived from the peptide” value with HSA [2] (setting [5]) was “observed”.
On to “HSA 599-609 fragment: SEQ ID NO: 30, 11 amino acid residues (LVAASQAALGL; Synthetic sequence of HSA599-609)”, for which, in data set [1], the pI is recorded as 5.5. The “suitability as linker peptide” value in the data set with HSA [3] is “suitable”.
In the same order, the values of “ACTH (1-41): SEQ ID NO: 17, 41 amino acid residues (GPSYSMEHFRWGKPVGKKRRPVKVYPNGAEDESAEAFPLEF; Synthetic sequence of ACTH (1-41))” are 8.3 and “suitable”.
For Colistin, the “suitability as linker peptide” value at HSA [3] was “suitable”.
Turning to “TMR-labeled ACTH (1-24): ACTH (1-24) labeled with tetramethyl rhodamine (TMR)”, in the data set with HSA [2] (setting [4]), the “band derived from the peptide” value is “not observed”.
As for “(His)3: SEQ ID NO: 11, 3 amino acid residues (HHH; Synthetic sequence of (His)3)”, the pI in data set [1] worked out at 7.
In data set [1], “(Glu) 10: SEQ ID NO: 18, 10 amino acid residues” returned a pI of 3.5. Further, the “suitability as linker peptide” value in the data set with HSA [3] was “suitable”.
The matching figures for Brain natriuretic peptide [BNP]: 11 and “suitable”.
The matching figures for “C-peptide: SEQ ID NO: 31, 31 amino acid residues (EAEDLQVGQVELGGGPGAGSLQPLALEGSLQ; Synthetic sequence of C-peptide)”: 3.5 and “suitable”.
With “(Arg) 10: SEQ ID NO: 21, 10 amino acid residues”, in data set [1], the pI is reported as 13. For the same compound, in the data set with HSA [3], the “suitability as linker peptide” value is on record as “suitable”.
Take “β-amyloid (1-40): SEQ ID NO: 1, 40 amino acid residues”: in data set [1], the pI came to 5.3.
Same read-out and setting: then “Blood coagulation factor XIII (Factor XIII): SEQ ID NO: 15, 25 amino acid residues (AVPPNNSNAAEDDLPTVELQGVVPR; Synthetic sequence of Factor XIII)”, with 3.9.
